According to the DeepSol protein solubility set:

assay: soluble on expression in E. coli; label from the status in PepcDB or PDB records

**Q.** Which “soluble on expression in E. coli” value does the source give for “MGSDKIHHHHHHMKISPLCPSCLLGRVYYEAKLVTDDEDLISQCVDESLKILAENYSSRPINAHLATRIHRRVYEILGVEDPYAEVKARANEVARQVLPLAKEIVEGSDDPFKTAVIVSIVGNNFDYGVQGHKVVEEEFRDFLKRKVQEGLKINDTERIKELSSGKVVYLTDNAGEIFFDTLLMKEIKRRCEKLTAVVRGRPIISDATIEDARLARVDKIADELLTNGKGAIGIIMDELPDETRKALEEADLIVAKGMANYECLSDGSLKPIAFLLTAKCEPVARDIGVNVGDMVAKVVE” here?
**A.** soluble

**Q.** With “MGSDKIHHHHHHMKKEDKTPSRLIQLGKIYRLIEQFEEISRIELSKLSGLAPASITSLSRSLIEKRLIMEKTSRNTDNRGRPAIALCVSPFYWQALCATLVEDRFEIILSELDGVIIEQSVFPLQKDDLECLDKFLVKSVKQFLAETHSLARPITFSVTVGGELDKNGYLIKLGCTKFAHLDLKSLFTPYFNIPILIAEYFKTWLLAESTLGNVINCDDVLFLQLDDEINLSVLSEGELLFSREQDKININHLIVPRLNELQALINHDLPEVERYQVQHQVTHRAIAQFIDALYPNRVFSNNSEKMNFLCEQIQLKDKNALRIIEHITDCLAYILMNLVHIFSARRVMLNSSLLQLKDFLLEQLNRKLKSYLVDNISTVSVIAGKYEWNSPIVAASAIKQGIYDGSLLTSLVKQEENIINF” as the sequence, how does the “soluble on expression in E. coli” value read?
**A.** not soluble

**Q.** For “MGSDKIHHHHHHMKKFLENSIHQAIKACFFFLGKLPKKKLFIFESFHGKQYSDNPRAIFEYIRDNCPEYQCIWAVKKGYEMPFVEENVPFVKRLSWRWLWLMPRAQYWVFNTRMPAWMYKNQTTIYIQTWHGTPLKKLGLDIETVKMPEHETESYKLEVIQEAKRWDYLISPNAYSTRVFRQAFHYEGEILEIGYPRNDLLVCENKDKIAFSVRNQLGLAANKKIILYAPTWRDDESIRKGAYRFTNHLPVEQLLEIDSSIVILTRLHYLIAESFDISAFGSRVIDVSSYPDINQLYLIADLLITDYSSVMFDFALTKKPMLFFMYDKEKYQNSTRGFYFDPTAILPGKIVTDTDSLVTSVKNVLFSKTEQEQRLYVQFFREFCLENQDATRQLISEILKR”, which “soluble on expression in E. coli” value is on record?
**A.** not soluble

**Q.** For “MGSDKIHHHHHHMKKFYDEMHASGDKVREHYAGYERWLAQQPHESMKGHRDEAEMIFRRVGITFAVYGAKDEDGSGTERLIPFDLIPRIIPAQEWREMEKGLRQRVNALNRFIHDVYHDQEIIKAGIVPGEQVFKNAQFRPEMMGVDVPGNVYSQIAGIDIVRAANPDGSGNYYVLEDNLRVPSGVSYMLENRKMMMRLFPELFSSHRVAPVAHYPDLLLDTLRAVAPPGVAEPTVVVMTPGMYNSAYFEHAFLAQQMGVELVEGQDLFVKDNYLYMRTTQGPRRVDVIYRRIDDDFLDPKAFRADSTIGCAGLLSVYRAGNVNLCNAIGTGVADDKSIYPYVPKMIEFYLGEKPILNNVPTYLCRESEDLQYVLAHLGELVVKEVHGAGGYGMLVGPAASKAEIEEFRTQLVANPSNYIAQPTLALSTCPTFVESGIAPRHIDLRPFVLSGKTVQMVPGGLTRVALKEGSLVVNSSQGGGTKDTWMLEA”, which “soluble on expression in E. coli” value is on record?
**A.** not soluble

**Q.** Which “soluble on expression in E. coli” value does the source give for “MGSDKIHHHHHHMKKKNVIVFGGGTGLSVLLRGLKTFPVSITAIVTVADDGGSSGRLRKELDIPPPGDVRNVLVALSEVEPLLEQLFQHRFENGNGLSGHSLGNLLLAGMTSITGDFARGISEMSKVLNVRGKVLPASNRSIILHGEMEDGTIVTGESSIPKAGKKIKRVFLTPKDTKPLREGLEAIRKADVIVIGPGSLYTSVLPNLLVPGICEAIKQSTARKVYICNVMTQNGETDGYTASDHLQAIMDHCGVGIVDDILVHGEPISDTVKAKYAKEKAEPVIVDEHKLKALGVGTISDYFVLEQDDVLRHNASKVSEAILEGKPRTSSSIQ” here?
**A.** not soluble

**Q.** Which “soluble on expression in E. coli” value does the source give for “MGSDKIHHHHHHMKKRNITEFQVLSEIIRKQPHIKQKEIAENLGITVQAVSEHIRNLVKEGYVKSRGRGEYVVTEKGLRKLKNWISEFKDYLDEINTAVYRYKDIWPAIADEDVKDGETVYLFMKNGLLYASKQPKGEAKAKALYGGKKGEDIAICEIKGIIDVPKGKVIVFRIPPEVVGGSRAVDFNLIKENIDNLDDYVIATMGTVAYVVACKLGLKPDIRFAVPEAIVNACNRGCNVIALITGKMAEKVIKKLDNAKISYTVLDATKENK” here?
**A.** not soluble

**Q.** With “MGSDKIHHHHHHMKKVAIVILNWNGRKLMEEFLPSVVSNSPEWAEVIVADNGSTDDSIEMLKAKFPTVGIISFNQNYGFAEGYNQALKRLDHEYCVLLNSDVEVTPNWLDAPIATLDSDPSIACVQPKIRAQRNKEYFEYAGAAGGYIDKYGYPFCRGRILHIVEKDEGQYDTPAYILWATGACLFVRTATYKEVGGLDAGFFAHQEEVDMCWRLRSRGYRLVCVPQSIVYHVGGATLNAESPRKTFLNFRNSLLMLYKNSREADLKHVMRIRFWLDYIAAAKFLMEGHIQNAKAVYEARKAYHQLKPEYAPKRKENLEKSTLSTIPELMRDSLILAFYLKGKRTFKAIKDRR” as the sequence, how does the “soluble on expression in E. coli” value read?
**A.** not soluble

**Q.** For “MGSDKIHHHHHHMKLEFTCGEEITIKEVNKLKLELMTSGKGDVEKELERLKKNKNKVHDIKTEETIDLLDRCAKLWLDDNYSKKHIETLAQITNQSFELVNYEFKSMMQMLLRENIQNTIKRELGEVDILDSWHKTNYGYEHRQPRGIIFHNISGNAFVVIPMSISMGLLSKNCNLVKVSKDEPYFAYAFYKSLCELDETVKDRLSVLYFDSSKTEIYDTIVKNSDGVIHWGGEYSSRIIGEMCAKYQKHMIMHGAKISFEVVDKCDDLNKVSEEIAKDIICWEQKACLSPRVVFLNDKIDVDEFSHCLSASLRKITEVIPKAYLSEWNSVKTIQDRQYCTLKYGMKNERRFKVYSSFNADYTVILSDGMPEKEDINKCFYRFIFVCPYSSKSDVVNYVSENLKDYLQTMGYSGNDEEFIEKMTLLGVSIVTKPGKMSLHEPGTSHDGIHNLKEFTFLVSRQI”, which “soluble on expression in E. coli” value is on record?
**A.** not soluble

**Q.** Which “soluble on expression in E. coli” value does the source give for “MGSDKIHHHHHHMKLHQGERVSFVKTIPSLQETEFSRLEERLCFAKHAHPTYSIGIMPLGLSLCQGEGETYFMGRHKVCVYHPGEEHTCVFEHTGGSWAYWNCYPKEEMLREYASEILGERGEPHFAKTVVEDPYAYRLFWELFDLVGKERELLALQEASLKAFSYLIAHHASPWHPSSRFLLMERAKITQAKERILEGDEVEKITLEELASLCGMSRFRFLRLFAKLEGMTPHRFLLMHKTQKAKRYLQEGCDISEAALLSGFCDQAHLSRTLRRFYGYTPRSLRS” here?
**A.** not soluble

**Q.** For “MGSDKIHHHHHHMKLHQLRALVAIHNAGSILEASKLMHITQPALSRSIKELEREVGFTLLQRSHKGMALTEEGKRVIRHANLVVESIRRLQIEAASIQDAALGAVSIGVTSLTAMLDGVDESILAFRRKYPRVKITITDLRPSQILQRLRDGSLDFAITSQQPLSRLSLDWEALGSIKGRVICHASNRQKFSQSLRTLQYAPWISLDELSDQASQFHQLFEANGLRVPQNTVECTSVMMALKLLKNTESLMTISELAVDQGFTYGIDCEFVAMAVQELIPDYPINLVCIDRHSLTAPAQELFHSLRGQVLKQTRPVGSEVVVHA”, which “soluble on expression in E. coli” value is on record?
**A.** not soluble

**Q.** Which “soluble on expression in E. coli” value does the source give for “MGSDKIHHHHHHMKLRNLLPLLGLMASAAHADAVTIQSCGVSQVFDKTPSRAITLNQQATEVMLALGLQEAMVGTAYIDDAIPAQWNDAYESVPVLAEKYPAAEVVLAQEPDFLFAGFGSAFSEDNLGAAEKWHDLGIGTYLVDASCKDKHLQDVPLTVAPIFEDIETVGKIFNVEDRANALIDTLQQRLDSVKAAPSGAGQTAFIYDSGAETPFSIGCCGGPALLASLTGLQSISSDVPGTWVDLSWEHVVAADPDVILLIEADWSTAAEKRAHMEADPVLSALRAVKEGRFVTVPFSETLLGMRFADGVETVNNQLAKLP” here?
**A.** not soluble

**Q.** Which “soluble on expression in E. coli” value does the source give for “MGSDKIHHHHHHMKLVCAQSDLSTNLSLVNRAVPSRPTHPVLANVLLQADAETNQVSLTAFDLSLGIRTSFNADVWQSGAIALPAKLLVDITSRLPEGEITLDDESATDGTATGEGLIVSLTPKTGKYQLRAMGAEEFPELPLIENTTAIYLTATSLIEGLRGSLFATSGDETKQVLTGVHLTVKQDTLEFAATDGHRLAVVETTNERPLEDNDQQLEVTVPARALRELERMLAHNAASEEPIALYLDQGQVIFAWQNQRLTSRTLEGQYPAYRQLIPRQFERQVTIERRQFLSTLERIAVLADQKNNIVKLTIDSTAQELTLSCEAQEMGSGRESMNAEIAGEDIEIAFNVKYLMEGLKALPSPEIQMHINQNLTPVIFTPLGGLKMTYLAMPVQLRN” here?
**A.** not soluble

**Q.** With “MGSDKIHHHHHHMKLYAENILLNDGWASKQTITIEQGIITAVDAGKIEGAEIAKGAVIPGMVNCHSHAFQRAFAGFSEQGSEGQDSFWTWRKIMYQFLAQLTELDAKNIAKQLYIEMLKMGYTRVAEFHYLHHDIDGSTYNSSVTTDKSASLATMAQAIFDAAKESGIGLTLLPVLYQHSGFGEQTPSDGQKRFINSTEQFNQLVSDCFTLSEQYSNTNVGIAPHSLRAVDKTSLLSAVKHVRSLDNQAPIHIHISEQQKEVDDCLAHFGQRPVQWLLDNVELDKHWCLIHATHIDEAERKGIIAKEAIAGICPTTEANLGDGIFPTTEFLADKGTIAIGSDSHISVNPIEELRWLEYAQRLIKQQRAILATDEQASVGQNLWQQAAIGGAQSTNSNTGSLAIGKQADLLVLDKDKTKLFASASQQLLDSMIFASQQNPVSDVMVNGVWQIKAQQHVEQEQASDNFANLLVRLSAS” as the sequence, how does the “soluble on expression in E. coli” value read?
**A.** not soluble

**Q.** For “MGSDKIHHHHHHMKMSINQIGRSNKVQIEKTEVEISTPDGKMPAFFYQPCERGQKPAVILLMEAFGLTSHIQDVATRIAKEGYVVLTPDLYYRELTNNKFGYEEVEQAMAMMYRLDFGKPIEEDIRAAIAYLKSQSNVFSEKIGVTGFCLGGGLSFLSACKFSDEIAAVASFYGMVLDDWIEAVTNISVPIYLFYGGIDSFIPPERVQQIETRFQELSKEYTLKVYPDADHGFFCHERSSYNRLAAEDSWNELTQFFHRHLQ”, which “soluble on expression in E. coli” value is on record?
**A.** not soluble

**Q.** Which “soluble on expression in E. coli” value does the source give for “MGSDKIHHHHHHMKMSWNHQYTNYGSIADDNGDEEKAENSEGAAAEKVEKQHDDDGVVVHEETDGVASSRSSHHDKQKPGETKKSGDGKMDDDDIITTARSSSRRICGSAASSSDSETADDAPLLPDEGPSHAVRLEMPGDKPASPHDRFPKTPLKTL” here?
**A.** not soluble

**Q.** With “MGSDKIHHHHHHMKNDKNLLQHFSREEREFVEKIMDMCQQVEDTYSYRLTHFLHPRQDEIVCKIANYYQLQTFSSRDLVSTEHSRVIIAPTYYELDIKHFELTALHLSYARKFHTLSHSQVLGTFLNQLGIKREYLGDILIDDERLIVFIDQKFGQIALQSITKVARVPVKGKEEEWTTVRLPIGQEWRSKDVLVSSMRLDKLISVAFNLSRATANKLIEAGHVKLDYVLTEQTSKLVEIGQLISVRRYGRVRLNEFLGFSKQGKIKLKLDIVKT” as the sequence, how does the “soluble on expression in E. coli” value read?
**A.** not soluble

**Q.** For “MGSDKIHHHHHHMKNIYLFIVSLFFFYTGCDTQQTKYPFSVETVLAKAGNNRKELEKALDYFYKQGDSIKIKAIEFLVAHMDIHYSETYYWKTREGKRVDFSEFDYANLETAVKAIDSMRKKYGSLDFQDTIIYDVNSLTGKYLINNVNHAVDTWRLSEYKDIPFNDFCEYILPYRVTVEPVTEWRKEYCKRYHWLTDSLQNKPLENVLDYAAIDYKDWFTFTYGSETRNEPLSRLSAQQLLFRKKGACEDIAALETFIFRSQGIPAAYISVPLWATSAGAHFSNTVFDTKMKPVKLDVTTHAVVDHPLDREPSKVIRYTYSSQPGTLASKEKEECIPTGFLQKTNYIDVTHEYWETSDVTIPLFNDTTHIIYACMFSMGRWNAEWWGERMENSVTFHNMPRGVVILPMIYKEHQLIPIGYPIVNGYNHQLYLVPDLLHTMTVEIEEQDRYLRFRPDKKYELFYWDNAWISLGTQVATMDADCLQFNQVPQNVLMLLVPEYSERKERPFIIMPDGTRYWW”, which “soluble on expression in E. coli” value is on record?
**A.** not soluble

**Q.** For “MGSDKIHHHHHHMKNTELEQLINEKLNSAAISDYAPNGLQVEGKETVQKIVTGVTASQALLDEAVRLGADAVIVHHGYFWKGESPVIRGMKRNRLKTLLANDINLYGWHLPLDAHPELGNNAQLAALLGITVMGEIEPLVPWGELTMPVPGLELASWIEARLGRKPLWCGDTGPEVVQRVAWCTGGGQSFIDSAARFGVDAFITGEVSEQTIHSAREQGLHFYAAGHHATERGGIRALSEWLNENTDLDVTFIDIPNPA”, which “soluble on expression in E. coli” value is on record?
**A.** not soluble
